Measured values: paper PMC5572738

Target: T1, bacteriorhodopsin (BR) from Halobacterium salinarum (Halobacterium salinarum), P02945
T1 chain: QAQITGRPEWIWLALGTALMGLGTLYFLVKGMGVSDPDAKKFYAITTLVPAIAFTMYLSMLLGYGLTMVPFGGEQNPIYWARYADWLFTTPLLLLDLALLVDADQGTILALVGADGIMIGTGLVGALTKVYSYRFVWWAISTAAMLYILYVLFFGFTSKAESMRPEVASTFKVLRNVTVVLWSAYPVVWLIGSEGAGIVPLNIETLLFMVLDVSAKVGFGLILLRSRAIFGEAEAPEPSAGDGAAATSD
Assay: SEC; Sephadex 200 column, BR solubilised in DDM; elution position compared with Blue Dextran, alcohol dehydrogenase (150 kDa) and bovine serum albumin (66 kDa)
Settings: remark: other sources report otherwise

B1: bacteriorhodopsin (BR) from Halobacterium salinarum, P02945 14-262 (natural protein)
chain: T1 chain
modifications: here or on the partner: retinal chromophore attached in a Schiff base linkage to a lysine residue in the seventh helix; retinal chromophore attached in a Schiff base linkage to a lysine residue in the seventh helix
  stoichiometry N: 3
